According to patent US20200317768A1 (published 2020):

Key:
Experiment in all cases: SPR (BIACORE), antibody captured on chip, FcγR as analyte, 25 °C; KD of SG1 divided by KD of the variant
[1] = molecular target: T1, cynomolgus monkey FcγRIIa3 extracellular domain, His-tagged (cynomolgus monkey)
T1 construct: also called cyno FcγRIIa3; cynoFcgRIIa3; not shown: C-terminal His-tag
T1 chain: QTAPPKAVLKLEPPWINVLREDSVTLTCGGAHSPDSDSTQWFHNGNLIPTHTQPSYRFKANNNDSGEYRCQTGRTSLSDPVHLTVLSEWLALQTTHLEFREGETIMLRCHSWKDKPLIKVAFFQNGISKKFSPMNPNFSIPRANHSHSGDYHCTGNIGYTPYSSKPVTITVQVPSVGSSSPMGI
Protocol: (§1) After the measurement, the antibody captured on the chip was washed off by allowing reaction with 10 mM glycine-HCl, pH1.5 and 25 mM NaOH so that the chip was regenerated and used repeatedly. The sensorgrams obtained as measurement results were analyzed by the 1:1 Langmuir binding model using the BIACORE® Evaluation Software to calculate the binding rate constant ka (L/mol/s) and dissociation rate constant kd (l/s), and the dissociation constant KD (mol/L) was calculated from these values. […] Regarding such interactions, KD values were calculated using the following 1:1 binding model described in BIACORE® T100 Software Handbook BR1006-48 Edition AE.
(§2) The behavior of interacting molecules according to the 1:1 binding model on BIACORE® can be described by Equation 1: Req=C·R max/(KD+C)+RI, wherein, Req is a plot of steady-state binding levels to analyte concentration. C is concentration, RI is bulk refractive index contribution in the sample, and Rmax is analyte binding capacity of the surface. When this equation is rearranged, KD can be expressed as Equation 2: KD=C·Rmax/(Req−RI)−C. KD can be calculated by substituting the values of Rmax, RI, and C into Equation 1 or Equation 2. From the current measurement conditions, RI=0, C=2 μmol/L can be used.

[2] = molecular target: T2, human FcγRIIaR extracellular domain, His-tagged (human, UniProt P12318 34-217)
T2 construct: also called human FcγRIIa (type R); FcgRIIaR; not shown: C-terminal His-tag
T2 chain: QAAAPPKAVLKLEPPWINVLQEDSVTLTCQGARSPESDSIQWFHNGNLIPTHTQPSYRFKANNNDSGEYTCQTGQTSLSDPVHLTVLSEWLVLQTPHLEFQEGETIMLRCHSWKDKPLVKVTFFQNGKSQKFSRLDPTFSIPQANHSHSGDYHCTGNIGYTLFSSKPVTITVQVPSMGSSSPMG
Protocol: as §1, §2

[3] = molecular target: T3, cynomolgus monkey FcγRIIa1 extracellular domain, His-tagged (cynomolgus monkey)
T3 construct: also called cyno FcγRIIa1; cynoFcgRIIa1; not shown: C-terminal His-tag
T3 chain: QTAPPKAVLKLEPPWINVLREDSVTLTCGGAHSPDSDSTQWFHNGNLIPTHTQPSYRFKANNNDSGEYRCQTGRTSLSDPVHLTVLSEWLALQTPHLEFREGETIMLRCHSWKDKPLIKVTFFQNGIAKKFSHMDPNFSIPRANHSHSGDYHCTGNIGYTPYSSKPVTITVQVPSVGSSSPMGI
Protocol: as §1, §2

[4] = molecular target: T4, human FcγRIIb extracellular domain, His-tagged (human, UniProt P31994 43-217)
T4 construct: also called FcgRIIb; not shown: C-terminal His-tag
T4 sequence: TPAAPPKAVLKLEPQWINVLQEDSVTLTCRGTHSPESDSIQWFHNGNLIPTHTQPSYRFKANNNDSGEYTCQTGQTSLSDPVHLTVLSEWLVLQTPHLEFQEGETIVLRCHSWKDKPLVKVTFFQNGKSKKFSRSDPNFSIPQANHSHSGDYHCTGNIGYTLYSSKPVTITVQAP
Protocol: as §1, §2

[5] = molecular target: T5, cynomolgus monkey FcγRIIa2 extracellular domain, His-tagged (cynomolgus monkey)
T5 construct: also called cyno FcγRIIa2; cynoFcgRIIa2; not shown: C-terminal His-tag
T5 chain: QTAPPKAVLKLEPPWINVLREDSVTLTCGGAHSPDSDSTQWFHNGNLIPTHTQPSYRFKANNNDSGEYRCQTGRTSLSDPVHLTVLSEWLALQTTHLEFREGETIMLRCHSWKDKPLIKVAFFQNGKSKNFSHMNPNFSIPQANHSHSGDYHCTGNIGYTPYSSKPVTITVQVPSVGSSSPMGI
Protocol: as §1, §2

[6] = molecular target: T6, human FcγRIIaH extracellular domain, His-tagged (human, UniProt P12318 34-217)
T6 construct: also called human FcγRIIa (type H); FcgRIIaH; not shown: C-terminal His-tag
T6 sequence: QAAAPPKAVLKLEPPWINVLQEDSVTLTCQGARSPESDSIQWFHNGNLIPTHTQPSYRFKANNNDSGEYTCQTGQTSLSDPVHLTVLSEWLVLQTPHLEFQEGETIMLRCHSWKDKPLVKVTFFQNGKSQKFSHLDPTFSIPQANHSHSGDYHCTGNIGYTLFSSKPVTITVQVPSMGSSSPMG
Protocol: as §1, §2

[7] = molecular target: T7, cynomolgus monkey FcγRIIIaS extracellular domain, His-tagged (cynomolgus monkey, UniProt Q8SPW2 21-206 at identity 1.00))
T7 construct: also called cyno FcγRIIIaS; cynoFcγRIIIaS; not shown: C-terminal His-tag
T7 chain: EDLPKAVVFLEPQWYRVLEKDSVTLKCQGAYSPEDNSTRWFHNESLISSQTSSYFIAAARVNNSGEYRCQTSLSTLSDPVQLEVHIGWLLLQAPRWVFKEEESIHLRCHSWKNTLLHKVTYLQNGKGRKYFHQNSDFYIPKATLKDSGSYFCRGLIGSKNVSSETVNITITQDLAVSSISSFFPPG
Protocol: as §1, §2

[8] = molecular target: T8, cynomolgus monkey FcγRIIb extracellular domain, His-tagged (cynomolgus monkey)
T8 construct: also called cyno FcγRIIb; cynoFcγRIIb; not shown: C-terminal His-tag
T8 chain: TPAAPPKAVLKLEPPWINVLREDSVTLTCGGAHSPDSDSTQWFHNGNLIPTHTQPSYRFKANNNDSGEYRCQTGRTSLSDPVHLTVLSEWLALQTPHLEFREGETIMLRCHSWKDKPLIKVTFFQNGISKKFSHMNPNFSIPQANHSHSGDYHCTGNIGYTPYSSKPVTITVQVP
Protocol: as §1, §2

[9] = molecular target: T9, human FcγRIIIaV extracellular domain, His-tagged (human, UniProt P08637 17-208)
T9 construct: also called human FcγRIIIa (V158 allotype); FcgRIIIaV; not shown: C-terminal His-tag
Protocol: as §1, §2

T9 sequence (P08637 17-208 F176V): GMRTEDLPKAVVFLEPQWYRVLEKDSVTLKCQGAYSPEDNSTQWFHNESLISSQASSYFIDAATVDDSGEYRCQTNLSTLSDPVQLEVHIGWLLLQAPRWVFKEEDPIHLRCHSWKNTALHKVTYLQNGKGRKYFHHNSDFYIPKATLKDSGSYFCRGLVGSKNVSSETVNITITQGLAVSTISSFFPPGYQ

B1: M103205H795-MY067/M103202L889-SK1 (antibody, human IgG1, kappa)
heavy: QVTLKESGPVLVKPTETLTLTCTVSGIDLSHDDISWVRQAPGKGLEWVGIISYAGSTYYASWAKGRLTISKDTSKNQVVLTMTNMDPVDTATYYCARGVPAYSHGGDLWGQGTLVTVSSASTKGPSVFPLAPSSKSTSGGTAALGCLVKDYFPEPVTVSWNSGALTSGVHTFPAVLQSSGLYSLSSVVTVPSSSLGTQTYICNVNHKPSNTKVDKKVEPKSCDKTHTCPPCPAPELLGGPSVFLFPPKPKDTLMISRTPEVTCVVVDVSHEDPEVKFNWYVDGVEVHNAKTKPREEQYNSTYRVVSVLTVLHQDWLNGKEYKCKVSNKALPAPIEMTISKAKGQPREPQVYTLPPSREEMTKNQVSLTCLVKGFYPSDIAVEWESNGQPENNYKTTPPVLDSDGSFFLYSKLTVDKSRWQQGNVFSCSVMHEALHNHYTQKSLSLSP
light: DIVMTQSPATLSLSPGERATLSCTSSQSVYHANWLSWFQQKPGQPPKLLIYWASTLAYGVPSRFSGSGSGTDFTLTISSLQPEDAATYYCAGGYGGGRYAFGQGTKVEIKRTVAAPSVFIFPPSDEQLKSGTASVVCLLNNFYPREAKVQWKVDNALQSGNSQESVTEQDSKDSTYSLSSTLTLSKADYEKHKVYACEVTHQGLSSPVTKSFNRGEC
notes: Substitution introduced into M103205H795-SG1 and expressed with M103202L889-SK1 as light chain; also called K334M variant of MS1032LO06-SG1
KD fold for cynoFcgRs (SG1 = 1) [1]: 2.5 fold
KD fold for humanFcgRs (SG1 = 1) [2]: 1.4 fold
KD fold for cynoFcgRs (SG1 = 1) [3]: 1.5 fold
KD fold for humanFcgRs (SG1 = 1) [4]: 1.6 fold
KD fold for cynoFcgRs (SG1 = 1) [5]: 2.2 fold
KD fold for humanFcgRs (SG1 = 1) [6]: 1.3 fold
KD fold for cynoFcgRs (SG1 = 1) [7]: 3.6 fold
KD fold for cynoFcgRs (SG1 = 1) [8]: 1.6 fold
KD fold for humanFcgRs (SG1 = 1) [9]: 4.05 fold
